B1: Apoptosis-associated speck-like protein containing a CARD, residues 114 to 194; numbered along this chain, Q9ULZ3 (parent)
chain: FIDQHRAALIARVTNVEWLLDALYGKVLTDEQYQAVRAEPTNPSKMRKLFSFTPAWNWTCKDLLLQALRESQSYLVEDLER

Results on 34 variants are retold here after the Human Domainome abundance scans (Beltran et al. 2025).

± gives the uncertainty stated by the source.

Variants of B1 are the subject of this data set. Kind of data set: abundance fitness (aPCA) (normalised: wild type 0, dead -1); higher = more abundant; growth selection in yeast, the domain comes from the species named. Conditions: Homo sapiens.
Regarding FIDQHRAALIARSTNVEWLLDALYGKVLTDEQYQAVRAEPTNPSKMRKLFSFTPAWNWTCKDLLLQALRESQSYLVEDLER, the abundance fitness was -0.535 ± 0.067.

Turning to FIDQHRAALIARMTNVEWLLDALYGKVLTDEQYQAVRAEPTNPSKMRKLFSFTPAWNWTCKDLLLQALRESQSYLVEDLER, the abundance fitness is -0.611 ± 0.11.

As for FIDQHRAALIARWTNVEWLLDALYGKVLTDEQYQAVRAEPTNPSKMRKLFSFTPAWNWTCKDLLLQALRESQSYLVEDLER, the abundance fitness is -0.893 ± 0.12.

As for FIDQHRAALIARNTNVEWLLDALYGKVLTDEQYQAVRAEPTNPSKMRKLFSFTPAWNWTCKDLLLQALRESQSYLVEDLER, the abundance fitness is -0.861 ± 0.25.

FIDQHRAALIARCTNVEWLLDALYGKVLTDEQYQAVRAEPTNPSKMRKLFSFTPAWNWTCKDLLLQALRESQSYLVEDLER: the abundance fitness stood at 0.023 ± 0.068.

Regarding FIDQHRAALIARQTNVEWLLDALYGKVLTDEQYQAVRAEPTNPSKMRKLFSFTPAWNWTCKDLLLQALRESQSYLVEDLER, the abundance fitness was -0.775 ± 0.14.

Take FIDQHRAALIARKTNVEWLLDALYGKVLTDEQYQAVRAEPTNPSKMRKLFSFTPAWNWTCKDLLLQALRESQSYLVEDLER: the abundance fitness was -0.899 ± 0.2.

For the variant FIDQHRAALIARHTNVEWLLDALYGKVLTDEQYQAVRAEPTNPSKMRKLFSFTPAWNWTCKDLLLQALRESQSYLVEDLER, the abundance fitness is -0.878 ± 0.26.

As to FIDQHRAALIARATNVEWLLDALYGKVLTDEQYQAVRAEPTNPSKMRKLFSFTPAWNWTCKDLLLQALRESQSYLVEDLER, the abundance fitness was -0.039 ± 0.061.

FIDQHRAALIARGTNVEWLLDALYGKVLTDEQYQAVRAEPTNPSKMRKLFSFTPAWNWTCKDLLLQALRESQSYLVEDLER: the abundance fitness is -0.598 ± 0.042.

Turning to FIDQHRAALIARDTNVEWLLDALYGKVLTDEQYQAVRAEPTNPSKMRKLFSFTPAWNWTCKDLLLQALRESQSYLVEDLER, the abundance fitness is -0.688 ± 0.14.

Turning to FIDQHRAALIARLTNVEWLLDALYGKVLTDEQYQAVRAEPTNPSKMRKLFSFTPAWNWTCKDLLLQALRESQSYLVEDLER, the abundance fitness was -0.632 ± 0.076.

On to FIDQHRAASIARVTNVEWLLDALYGKVLTDEQYQAVRAEPTNPSKMRKLFSFTPAWNWTCKDLLLQALRESQSYLVEDLER, for which the abundance fitness is -0.938 ± 0.15.

With FIDQHRAAYIARVTNVEWLLDALYGKVLTDEQYQAVRAEPTNPSKMRKLFSFTPAWNWTCKDLLLQALRESQSYLVEDLER, the abundance fitness was -0.644 ± 0.28.

As to FIDQHRAAVIARVTNVEWLLDALYGKVLTDEQYQAVRAEPTNPSKMRKLFSFTPAWNWTCKDLLLQALRESQSYLVEDLER, the abundance fitness is -0.989 ± 0.13.

With FIDQHRAAWIARVTNVEWLLDALYGKVLTDEQYQAVRAEPTNPSKMRKLFSFTPAWNWTCKDLLLQALRESQSYLVEDLER, the abundance fitness was -0.811 ± 0.11.

As for FIDQHRAALIRRVTNVEWLLDALYGKVLTDEQYQAVRAEPTNPSKMRKLFSFTPAWNWTCKDLLLQALRESQSYLVEDLER, the abundance fitness was -0.038 ± 0.45.

Consider FIDQHRAALIERVTNVEWLLDALYGKVLTDEQYQAVRAEPTNPSKMRKLFSFTPAWNWTCKDLLLQALRESQSYLVEDLER, for which the abundance fitness was -0.115 ± 0.41.

Regarding FIDQHRAALHARVTNVEWLLDALYGKVLTDEQYQAVRAEPTNPSKMRKLFSFTPAWNWTCKDLLLQALRESQSYLVEDLER, the abundance fitness is -0.769 ± 0.27.

For FIDQHRAALSARVTNVEWLLDALYGKVLTDEQYQAVRAEPTNPSKMRKLFSFTPAWNWTCKDLLLQALRESQSYLVEDLER, the abundance fitness is -0.977 ± 0.15.

For FIDQHRAALEARVTNVEWLLDALYGKVLTDEQYQAVRAEPTNPSKMRKLFSFTPAWNWTCKDLLLQALRESQSYLVEDLER, the abundance fitness was -0.594 ± 0.066.

Turning to FIDQHRAALFARVTNVEWLLDALYGKVLTDEQYQAVRAEPTNPSKMRKLFSFTPAWNWTCKDLLLQALRESQSYLVEDLER, the abundance fitness was -0.84 ± 0.17.

FIDQHRAALNARVTNVEWLLDALYGKVLTDEQYQAVRAEPTNPSKMRKLFSFTPAWNWTCKDLLLQALRESQSYLVEDLER: the abundance fitness is -0.745 ± 0.29.

As for FIDQHRAALPARVTNVEWLLDALYGKVLTDEQYQAVRAEPTNPSKMRKLFSFTPAWNWTCKDLLLQALRESQSYLVEDLER, the abundance fitness is -0.985 ± 0.25.

For FIDQHRAALRARVTNVEWLLDALYGKVLTDEQYQAVRAEPTNPSKMRKLFSFTPAWNWTCKDLLLQALRESQSYLVEDLER, the abundance fitness is -0.631 ± 0.064.

Consider FIDQHRAALWARVTNVEWLLDALYGKVLTDEQYQAVRAEPTNPSKMRKLFSFTPAWNWTCKDLLLQALRESQSYLVEDLER, for which the abundance fitness is -0.793 ± 0.11.

Regarding FIDQHRAALAARVTNVEWLLDALYGKVLTDEQYQAVRAEPTNPSKMRKLFSFTPAWNWTCKDLLLQALRESQSYLVEDLER, the abundance fitness is -0.714 ± 0.097.

As to FIDQHRAALYARVTNVEWLLDALYGKVLTDEQYQAVRAEPTNPSKMRKLFSFTPAWNWTCKDLLLQALRESQSYLVEDLER, the abundance fitness is -0.54 ± 0.2.

As for FIDQHRAALTARVTNVEWLLDALYGKVLTDEQYQAVRAEPTNPSKMRKLFSFTPAWNWTCKDLLLQALRESQSYLVEDLER, the abundance fitness was -0.515 ± 0.092.

Turning to FIDQHRAALDARVTNVEWLLDALYGKVLTDEQYQAVRAEPTNPSKMRKLFSFTPAWNWTCKDLLLQALRESQSYLVEDLER, the abundance fitness is -0.658 ± 0.15.

FIDQHRAALQARVTNVEWLLDALYGKVLTDEQYQAVRAEPTNPSKMRKLFSFTPAWNWTCKDLLLQALRESQSYLVEDLER: the abundance fitness was -0.655 ± 0.15.

Consider FIDQHRAALCARVTNVEWLLDALYGKVLTDEQYQAVRAEPTNPSKMRKLFSFTPAWNWTCKDLLLQALRESQSYLVEDLER, for which the abundance fitness is -0.628 ± 0.16.

Regarding FIDQHRAALGARVTNVEWLLDALYGKVLTDEQYQAVRAEPTNPSKMRKLFSFTPAWNWTCKDLLLQALRESQSYLVEDLER, the abundance fitness is -0.74 ± 0.076.

Turning to FIDQHRAALMARVTNVEWLLDALYGKVLTDEQYQAVRAEPTNPSKMRKLFSFTPAWNWTCKDLLLQALRESQSYLVEDLER, the abundance fitness is -0.489 ± 0.11.
